For one data set, the system named is GFP-Nup62. The data set can be described thus: Deglycosylation of GFP-Nup62 co-expressed with OGA constructs (anti-EPEA enrichment, RL2 immunoblot). The settings on record: co-expressed in HEK 293T cells. It counts as cell-based, human. Here is the method:
(§1) HEK 293T cells were cultured in Dulbecco's Modified Eagle Medium (DMEM, Cat #11995073) supplemented with penicillin (50 μg/mL) and streptomycin (50 μg/mL) along with 10% (v/v) FBS. Transfections of all plasmids in this study were performed using TransIT-PRO® (Mirus Bio, Cat #MIR 5740) according to the manufacturer's instructions.
Glycoproteins Nup62, Sp1, JunB, c-Jun were subcloned into pcDNA3.1 vector with a GFP and a Flag-tag or a BC2 tag in the N-terminus and an EPEA tag in the C terminus respectively, unless otherwise noted. For all split OGA constructs with or without the fusion of nanobody GFP, N fragments were tagged with myc tag and C fragments were tagged with HA tag respectively. Human SP1 cDNA ORF plasmid (Cat #HG12024-G), human c-Fos cDNA ORF plasmid, and human OGT cDNA ORF cloned with a C-terminal His tag (Cat #HG11279-M) were purchased from Sino Biological. For subcloning, PCR fragments were amplified using Q5 High-Fidelity 2× Master Mix (New England BioLabs, Cat #M0492S). The vectors were double-digested and ligated to gel-purified PCR products by T4 ligation using T4 DNA ligase (New England BioLabs, Cat #M0202S) or by Gibson assembly using Gibson Assembly Master mix (New England BioLabs, Cat #E2611L). c-Fos was subcloned into a pcDNA3.1 vector with a 14-residue Ubc tag (amino acids: QADQEAKELARQIA (SEQ ID NO: 11)), Flag tag, and EPEA tag at the C terminus. All nanobody DNA fragments were synthesized by IDT.
After 36-48 h of transfection, cells were harvested and washed with PBS once. Cells were lysed with M-PER lysis buffer containing 1× protease inhibitor cocktail and 10 μM Thiamet-G unless otherwise noted. Protein concentrations were determined by the BCA assay kit (G-Biosciences, 786) on a multi-mode microplate reader FilterMax F3 (Molecular Devices LLC, Sunnyvale, CA).
For immunoprecipitation of proteins with the C-terminal EPEA tag, cell lysates with equal amounts of protein were diluted with PBS and incubated with C-tag affinity matrix (Thermo Scientific) for 1 h at room temperature, with end-to-end rotation, following the manufacturer's instructions. After washing three times with PBS buffer, the enriched proteins were eluted with SDS sample buffer and subjected to SDS-PAGE.
For immunoblotting analysis, proteins were transferred to a nitrocellulose membrane using iBlot (Thermo Scientific). Membranes were blocked with Tris buffered saline containing 0.1% Tween-20 and 5% BSA and incubated with the primary antibodies (1:1000 dilution) and the secondary antibodies (1:10,000 dilution) sequentially. Immunoblot images were captured by Azure Imager C600. Analysis of immunoblots was conducted with Fiji ImageJ. All IR fluorescence western blot images are converted into grayscale images by Fiji ImageJ. The unsaturated exposure of immunoblot images was used for quantification with the appropriate loading controls as standards. Statistical analysis of the data was performed with Prism 8, using data from at least three independent experiments.
On the technique in general: In western blotting, separated proteins are transferred to a membrane and probed.

The test system of a further data set is GFP-Sp1. The data set can be described thus: Deglycosylation of GFP-Sp1 co-expressed with OGA constructs (anti-EPEA enrichment, immunoblot). It counts as cell-based, human. As to conditions: co-expressed in HEK 293T cells. Here is the method:
as §1
Glycoproteins Nup62, Sp1, JunB, c-Jun were subcloned into pcDNA3.1 vector with a GFP and a Flag-tag or a BC2 tag in the N-terminus and an EPEA tag in the C terminus respectively, unless otherwise noted. For all split OGA constructs with or without the fusion of nanobody GFP, N fragments were tagged with myc tag and C fragments were tagged with HA tag respectively. […]
After 36-48 h of transfection, cells were harvested and washed with PBS once. […] Protein concentrations were determined by the BCA assay kit (G-Biosciences, 786) on a multi-mode microplate reader FilterMax F3 (Molecular Devices LLC, Sunnyvale, CA). […]
For immunoblotting analysis, proteins were transferred to a nitrocellulose membrane using iBlot (Thermo Scientific). […] All IR fluorescence western blot images are converted into grayscale images by Fiji ImageJ. The unsaturated exposure of immunoblot images was used for quantification with the appropriate loading controls as standards. […]

The next data set addresses T1, OGT (Homo sapiens, UniProt O15294).
T1 construct: host or cells: HEK 293T
T1 sequence (O15294 1-1046): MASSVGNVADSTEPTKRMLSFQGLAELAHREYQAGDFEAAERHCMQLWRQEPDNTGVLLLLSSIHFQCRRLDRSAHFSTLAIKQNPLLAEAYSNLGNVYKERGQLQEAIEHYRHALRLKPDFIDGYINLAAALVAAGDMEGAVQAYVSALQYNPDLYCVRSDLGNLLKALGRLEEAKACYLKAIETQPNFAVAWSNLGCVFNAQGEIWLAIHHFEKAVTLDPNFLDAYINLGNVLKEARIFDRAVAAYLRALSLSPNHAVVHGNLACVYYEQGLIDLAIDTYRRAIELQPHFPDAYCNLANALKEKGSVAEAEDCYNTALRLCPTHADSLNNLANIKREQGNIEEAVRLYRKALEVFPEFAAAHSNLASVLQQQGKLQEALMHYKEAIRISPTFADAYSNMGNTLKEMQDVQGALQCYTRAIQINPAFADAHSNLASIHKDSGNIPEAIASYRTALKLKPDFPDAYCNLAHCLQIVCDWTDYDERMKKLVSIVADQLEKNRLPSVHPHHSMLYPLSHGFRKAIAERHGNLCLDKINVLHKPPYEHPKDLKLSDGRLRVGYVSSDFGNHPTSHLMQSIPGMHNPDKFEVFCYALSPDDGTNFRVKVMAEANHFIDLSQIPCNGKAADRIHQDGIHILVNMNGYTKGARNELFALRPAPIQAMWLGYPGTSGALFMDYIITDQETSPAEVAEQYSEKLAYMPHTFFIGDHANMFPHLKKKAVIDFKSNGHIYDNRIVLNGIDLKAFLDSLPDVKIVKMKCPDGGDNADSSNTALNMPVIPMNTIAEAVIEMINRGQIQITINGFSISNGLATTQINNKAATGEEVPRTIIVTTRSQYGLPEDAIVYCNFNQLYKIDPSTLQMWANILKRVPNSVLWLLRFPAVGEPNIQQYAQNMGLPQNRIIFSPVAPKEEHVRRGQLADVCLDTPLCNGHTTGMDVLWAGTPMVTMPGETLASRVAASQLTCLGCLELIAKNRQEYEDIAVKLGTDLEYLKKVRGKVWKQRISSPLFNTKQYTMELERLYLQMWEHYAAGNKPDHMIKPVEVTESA
The data set can be described thus: Co-immunoprecipitation of OGA constructs with His-tagged OGT. As to conditions: OGT-His co-transfected in HEK 293T cells. It counts as cell-based. Here is the method:
For immunoprecipitation of proteins with His tag, cells were lysed in a buffer containing 50 mM Tris HCl pH 8.0, 150 mM NaCl, 1% Triton X-100, 5% glycerol, 1× protease inhibitor cocktail and 10 μM Thiamet-G on ice for 20 min. Cell lysates with equal amounts of protein were diluted with wash buffer (50 mM Tris HCl pH 8.0, 150 mM NaCl, 0.01% Tween-20) and incubated with pre-washed His-Tag Dynabeads (Invitrogen, 10103D) at room temperature for 20 min with mixing, following the manufacturer's instructions. After washed 4 times with wash buffer, the enriched proteins were eluted with elution buffer (300 mM Imidazole, 50 mM Tris HCl pH 8.0, 150 mM NaCl, 0.01% Tween-20) on a shaker for 10 min at room temperature.

B1: split OGA (N2+C3): split OGA fragments N2 and C3 without nanobody (protein)
chain 1: MEQKLISEEDLAIAMVQKESQATLEERESELSSNPAASAGASLEPPAAPAPGEDNPAGAGGAAVAGAAGGARRFLCGVVEGFYGRPWVMEQRKELFRRLQKWELNTYLYAPKDDYKHRMFWREMYSVEEAEQLMTLISAAREYEIEFIYAISPGLDITFSNPKEVSTLKRKLDQVSQFGCRSFALLFDDIDHNMCAADKEVFSSFAHAQVSITNEIYQYLGEPETFLFCPTEYCGTFCYPNVSQSPYLRTVGEKLLPGIEVLWTGPKVVSKEIPVESIEEVSKIIKRAPVIWDNIHANDYDQKRLFLGPYKGRSTELIPRLKGVLTNPNCEFEANYVAIHTLATWYKSNMNGVRKDVVMTDSEDSTVSIQIKLENEGSDEDIETDVLYSPQMALKLALTEWLQEFGVPHQYSSR
chain 2: MAYPYDVPDYAAIAEKPLYTAEPVTLEDLQLLADLFYLPYEHGPKGAQMLREFQWLRANSSVVSVNCKGKDSEKIEEWRSRAAKFEEMCGLVMGMFTRLSNCANRTILYDMYSYVWDIKSIMSMVKSFVQWLGCRSHSSAQFLIGDQEPWAFRGGLAGEFQRLLPIDGANDLFFQPP
As for B1, the “deglycosidase activity / O-GlcNAc modification level on GFP-Nup62” value in the data set on GFP-Nup62 is listed as “limited substrate activity”; in the data set with GFP-Nup62 (listed as N2-C3 pair), “significantly reduced activity”. For the same molecule, the “deglycosidase activity / O-GlcNAc level on GFP-Sp1” value with GFP-Sp1 is “weak inherent deglycosidase activity”. In the data set with OGT, the “interaction with OGT” value is given as “unable to interact with OGT”.

The values are drawn from patent US20240043528A1, “NANOBODY-OGA FUSIONS AND USES THEREOF” (President and Fellows of Harvard College, priority 2020, published 2024).
